One block for each binder: values may come before it.
Target: T1, TGF-β2 (Homo sapiens, UniProt P61812)
T1 chain: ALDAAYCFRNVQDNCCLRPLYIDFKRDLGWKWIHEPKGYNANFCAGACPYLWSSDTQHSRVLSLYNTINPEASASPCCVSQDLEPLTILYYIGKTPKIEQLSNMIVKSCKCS
Assay: SPR

Kd: 0.5 nM
B1: betaglycan O-ZP (protein)
chain: GPEPSTRCELSPINASHPVQALMESFTVLSGCASRGTTGLPREVHVLNLRSTDQGPGQRQREVTLHLNPIASVHTHHKPIVFLLNSPQPLVWHLKTERLAAGVPRLFLVSEGSVVQFPSGNFSLTAETEERNFPQENEHLLRWAQKEYGAVTSFTELKIARNIYIKVGEDQVFPPTCNIGKNFLSLNYLAEYLQPKAAEGCVLPSQPHEKEVHIIELITPSSNPYSAFQVDIIVDIRPAQEDPEVVKNLVLILKCKKSVNWVIKSFDVKGNLKVIAPNSIGFGKESERSMTMTKLVRDDIPSTQENLMKWALDNGYRPVTSYTMAPVANRFHLRLENNEEMRDEEVHTIPPELRILLDPDHPPALDNPLFPGEGSPNGGLPFPFPDIPRRGWKEGEDRIPRPKQPIVPSVQLLPDHREPEEVQGGVDIALSVKCDHEKMVVAVDKDSFQTNGYSGMELTLLDPSCKAKMNGTHFVLESPLNGCGTRHRRSTPDGVVYYNSIVVQAPSPGDSSGWPDGYEDLESGDNGFPGDGDEGETAPLSRAGVVVFNCSLRQLRNPSGFQGQLDGNATFNMELYNTDLFLVPSPGVFSVAENEHVYVEVSVTKADQDLGFAIQTCFLSPYSNPDRMSDYTIIENICPKDDSVKFYSSKRVHFPIPHAEVDKKRFSFLFKSVFNTSLLFLHCELTLCSRKKGSLKLPRCVTPDDACTSLDATMIWTMMQNKKTFTKPLAVVLQVDYKENVPSTKDSSPIPPPPPQIFHGLDTL

Kd: 10 nM
B2: betaglycan O (protein)
chain: GPEPSTRCELSPINASHPVQALMESFTVLSGCASRGTTGLPREVHVLNLRSTDQGPGQRQREVTLHLNPIASVHTHHKPIVFLLNSPQPLVWHLKTERLAAGVPRLFLVSEGSVVQFPSGNFSLTAETEERNFPQENEHLLRWAQKEYGAVTSFTELKIARNIYIKVGEDQVFPPTCNIGKNFLSLNYLAEYLQPKAAEGCVLPSQPHEKEVHIIELITPSSNPYSAFQVDIIVDIRPAQEDPEVVKNLVLILKCKKSVNWVIKSFDVKGNLKVIAPNSIGFGKESERSMTMTKLVRDDIPSTQENLMKWALDNGYRPVTSYTMAPVANRFHLRLENNEEMRDEEVHTIPPELRILLDPDHPPALDNPLFPGEGSPNGGLPFPFPD

— article PMC6726503 (2019)
